Measured values: patent publication US20200317768A1 (published 2020)

T1: cynomolgus monkey FcγRIIa3 extracellular domain, C-terminal His-tag (cynomolgus monkey)
T1 construct: also called cyno FcγRIIa3; cynoFcgRIIa3; not shown: His-tag added to C-terminus
T1 chain: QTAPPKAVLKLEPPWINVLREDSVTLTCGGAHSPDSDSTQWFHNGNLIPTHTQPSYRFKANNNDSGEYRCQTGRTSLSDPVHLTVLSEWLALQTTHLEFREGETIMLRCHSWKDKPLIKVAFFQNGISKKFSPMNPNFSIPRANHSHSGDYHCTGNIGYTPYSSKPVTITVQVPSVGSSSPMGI


Biological target: T1, cynomolgus monkey FcγRIIa3 …
Experiment: SPR (Biacore), KD of SG1 / KD of variant;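 note: relative to parent M103205H795-SG1 carrying the SG1 human heavy chain constant region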

Binder	KD fold (SG1 = 1)
M103205H795-MY269/M103202L889-SK1 (antibody, human IgG1, kappa) heavy: QVTLKESGPVLVKPTETLTLTCTVSGIDLSHDDISWVRQAPGKGLEWVGIISYAGSTYYASWAKGRLTISKDTSKNQVVLTMTNMDPVDTATYYCARGVPAYSHGGDLWGQGTLVTVSSASTKGPSVFPLAPSSKSTSGGTAALGCLVKDYFPEPVTVSWNSGALTSGVHTFPAVLQSSGLYSLSSVVTVPSSSLGTQTYICNVNHKPSNTKVDKKVEPKSCDKTHTCPPCPAPELLMGPSVFLFPPKPKDTLMISRTPEVTCVVVDVSDEDPEVKFNWYVDGVEVHNAKTKPREEQYNSTYRVVSVLTVLHQDWLNGKEYKCKVSNKALPKPIEKTISKAKGQPREPQVYTLPPSREEMTKNQVSLTCLVKGFYPSDIAVEWESNGQPENNYKTTPKVLDSDGSFFLYSKLTVDKSRWQQGNVFSCSVMHEALHNHYTQKSLSLSP light: DIVMTQSPATLSLSPGERATLSCTSSQSVYHANWLSWFQQKPGQPPKLLIYWASTLAYGVPSRFSGSGSGTDFTLTISSLQPEDAATYYCAGGYGGGRYAFGQGTKVEIKRTVAAPSVFIFPPSDEQLKSGTASVVCLLNNFYPREAKVQWKVDNALQSGNSQESVTEQDSKDSTYSLSSTLTLSKADYEKHKVYACEVTHQGLSSPVTKSFNRGEC	2.7 fold
M103205H795-MY276/M103202L889-SK1 (antibody, human IgG1, kappa) heavy: QVTLKESGPVLVKPTETLTLTCTVSGIDLSHDDISWVRQAPGKGLEWVGIISYAGSTYYASWAKGRLTISKDTSKNQVVLTMTNMDPVDTATYYCARGVPAYSHGGDLWGQGTLVTVSSASTKGPSVFPLAPSSKSTSGGTAALGCLVKDYFPEPVTVSWNSGALTSGVHTFPAVLQSSGLYSLSSVVTVPSSSLGTQTYICNVNHKPSNTKVDKKVEPKSCDKTHTCPPCPAPELLIGPSVFLFPPKPKDTLMISRTPEVTCVVVDVSDEDPEVKFNWYVDGVEVHNAKTKPREEQYNSTYRVVSVLTVLHQDWLNGKEYKCKVSNKALPKPIEKTISKAKGQPREPQVYTLPPSREEMTKNQVSLTCLVKGFYPSDIAVEWESNGQPENNYKTTPKVLDSDGSFFLYSKLTVDKSRWQQGNVFSCSVMHEALHNHYTQKSLSLSP light: DIVMTQSPATLSLSPGERATLSCTSSQSVYHANWLSWFQQKPGQPPKLLIYWASTLAYGVPSRFSGSGSGTDFTLTISSLQPEDAATYYCAGGYGGGRYAFGQGTKVEIKRTVAAPSVFIFPPSDEQLKSGTASVVCLLNNFYPREAKVQWKVDNALQSGNSQESVTEQDSKDSTYSLSSTLTLSKADYEKHKVYACEVTHQGLSSPVTKSFNRGEC	3.8 fold
M103205H795-MY274/M103202L889-SK1 (antibody, human IgG1, kappa) heavy: QVTLKESGPVLVKPTETLTLTCTVSGIDLSHDDISWVRQAPGKGLEWVGIISYAGSTYYASWAKGRLTISKDTSKNQVVLTMTNMDPVDTATYYCARGVPAYSHGGDLWGQGTLVTVSSASTKGPSVFPLAPSSKSTSGGTAALGCLVKDYFPEPVTVSWNSGALTSGVHTFPAVLQSSGLYSLSSVVTVPSSSLGTQTYICNVNHKPSNTKVDKKVEPKSCDKTHTCPPCPAPELLTGPSVFLFPPKPKDTLMISRTPEVTCVVVDVSDEDPEVKFNWYVDGVEVHNAKTKPREEQYNSTYRVVSVLTVLHQDWLNGKEYKCKVSNKALPKPIEKTISKAKGQPREPQVYTLPPSREEMTKNQVSLTCLVKGFYPSDIAVEWESNGQPENNYKTTPKVLDSDGSFFLYSKLTVDKSRWQQGNVFSCSVMHEALHNHYTQKSLSLSP light: DIVMTQSPATLSLSPGERATLSCTSSQSVYHANWLSWFQQKPGQPPKLLIYWASTLAYGVPSRFSGSGSGTDFTLTISSLQPEDAATYYCAGGYGGGRYAFGQGTKVEIKRTVAAPSVFIFPPSDEQLKSGTASVVCLLNNFYPREAKVQWKVDNALQSGNSQESVTEQDSKDSTYSLSSTLTLSKADYEKHKVYACEVTHQGLSSPVTKSFNRGEC	8.5 fold
M103205H795-MY273/M103202L889-SK1 (antibody, human IgG1, kappa) heavy: QVTLKESGPVLVKPTETLTLTCTVSGIDLSHDDISWVRQAPGKGLEWVGIISYAGSTYYASWAKGRLTISKDTSKNQVVLTMTNMDPVDTATYYCARGVPAYSHGGDLWGQGTLVTVSSASTKGPSVFPLAPSSKSTSGGTAALGCLVKDYFPEPVTVSWNSGALTSGVHTFPAVLQSSGLYSLSSVVTVPSSSLGTQTYICNVNHKPSNTKVDKKVEPKSCDKTHTCPPCPAPELLLGPSVFLFPPKPKDTLMISRTPEVTCVVVDVSDEDPEVKFNWYVDGVEVHNAKTKPREEQYNSTYRVVSVLTVLHQDWLNGKEYKCKVSNKALPKPIEKTISKAKGQPREPQVYTLPPSREEMTKNQVSLTCLVKGFYPSDIAVEWESNGQPENNYKTTPKVLDSDGSFFLYSKLTVDKSRWQQGNVFSCSVMHEALHNHYTQKSLSLSP light: DIVMTQSPATLSLSPGERATLSCTSSQSVYHANWLSWFQQKPGQPPKLLIYWASTLAYGVPSRFSGSGSGTDFTLTISSLQPEDAATYYCAGGYGGGRYAFGQGTKVEIKRTVAAPSVFIFPPSDEQLKSGTASVVCLLNNFYPREAKVQWKVDNALQSGNSQESVTEQDSKDSTYSLSSTLTLSKADYEKHKVYACEVTHQGLSSPVTKSFNRGEC	1.5 fold

Results, then the binder that gave them:

KD fold (SG1 = 1)	Binder
2.9 fold	M103205H795-MY242/M103202L889-SK1 (antibody, human IgG1, kappa) heavy: QVTLKESGPVLVKPTETLTLTCTVSGIDLSHDDISWVRQAPGKGLEWVGIISYAGSTYYASWAKGRLTISKDTSKNQVVLTMTNMDPVDTATYYCARGVPAYSHGGDLWGQGTLVTVSSASTKGPSVFPLAPSSKSTSGGTAALGCLVKDYFPEPVTVSWNSGALTSGVHTFPAVLQSSGLYSLSSVVTVPSSSLGTQTYICNVNHKPSNTKVDKKVEPKSCDKTHTCPPCPAPELLGGISVFLFPPKPKDTLMISRTPEVTCVVVDVSDEDPEVKFNWYVDGVEVHNAKTKPREEQYNSTYRVVSVLTVLHQDWLNGKEYKCKVSNKALPKPIEKTISKAKGQPREPQVYTLPPSREEMTKNQVSLTCLVKGFYPSDIAVEWESNGQPENNYKTTPKVLDSDGSFFLYSKLTVDKSRWQQGNVFSCSVMHEALHNHYTQKSLSLSP light: DIVMTQSPATLSLSPGERATLSCTSSQSVYHANWLSWFQQKPGQPPKLLIYWASTLAYGVPSRFSGSGSGTDFTLTISSLQPEDAATYYCAGGYGGGRYAFGQGTKVEIKRTVAAPSVFIFPPSDEQLKSGTASVVCLLNNFYPREAKVQWKVDNALQSGNSQESVTEQDSKDSTYSLSSTLTLSKADYEKHKVYACEVTHQGLSSPVTKSFNRGEC
2.7 fold	M103205H795-MY272/M103202L889-SK1 (antibody, human IgG1, kappa) heavy: QVTLKESGPVLVKPTETLTLTCTVSGIDLSHDDISWVRQAPGKGLEWVGIISYAGSTYYASWAKGRLTISKDTSKNQVVLTMTNMDPVDTATYYCARGVPAYSHGGDLWGQGTLVTVSSASTKGPSVFPLAPSSKSTSGGTAALGCLVKDYFPEPVTVSWNSGALTSGVHTFPAVLQSSGLYSLSSVVTVPSSSLGTQTYICNVNHKPSNTKVDKKVEPKSCDKTHTCPPCPAPELLQGPSVFLFPPKPKDTLMISRTPEVTCVVVDVSDEDPEVKFNWYVDGVEVHNAKTKPREEQYNSTYRVVSVLTVLHQDWLNGKEYKCKVSNKALPKPIEKTISKAKGQPREPQVYTLPPSREEMTKNQVSLTCLVKGFYPSDIAVEWESNGQPENNYKTTPKVLDSDGSFFLYSKLTVDKSRWQQGNVFSCSVMHEALHNHYTQKSLSLSP light: DIVMTQSPATLSLSPGERATLSCTSSQSVYHANWLSWFQQKPGQPPKLLIYWASTLAYGVPSRFSGSGSGTDFTLTISSLQPEDAATYYCAGGYGGGRYAFGQGTKVEIKRTVAAPSVFIFPPSDEQLKSGTASVVCLLNNFYPREAKVQWKVDNALQSGNSQESVTEQDSKDSTYSLSSTLTLSKADYEKHKVYACEVTHQGLSSPVTKSFNRGEC
3.5 fold	M103205H795-MY271/M103202L889-SK1 (antibody, human IgG1, kappa) heavy: QVTLKESGPVLVKPTETLTLTCTVSGIDLSHDDISWVRQAPGKGLEWVGIISYAGSTYYASWAKGRLTISKDTSKNQVVLTMTNMDPVDTATYYCARGVPAYSHGGDLWGQGTLVTVSSASTKGPSVFPLAPSSKSTSGGTAALGCLVKDYFPEPVTVSWNSGALTSGVHTFPAVLQSSGLYSLSSVVTVPSSSLGTQTYICNVNHKPSNTKVDKKVEPKSCDKTHTCPPCPAPELLVGPSVFLFPPKPKDTLMISRTPEVTCVVVDVSDEDPEVKFNWYVDGVEVHNAKTKPREEQYNSTYRVVSVLTVLHQDWLNGKEYKCKVSNKALPKPIEKTISKAKGQPREPQVYTLPPSREEMTKNQVSLTCLVKGFYPSDIAVEWESNGQPENNYKTTPKVLDSDGSFFLYSKLTVDKSRWQQGNVFSCSVMHEALHNHYTQKSLSLSP light: DIVMTQSPATLSLSPGERATLSCTSSQSVYHANWLSWFQQKPGQPPKLLIYWASTLAYGVPSRFSGSGSGTDFTLTISSLQPEDAATYYCAGGYGGGRYAFGQGTKVEIKRTVAAPSVFIFPPSDEQLKSGTASVVCLLNNFYPREAKVQWKVDNALQSGNSQESVTEQDSKDSTYSLSSTLTLSKADYEKHKVYACEVTHQGLSSPVTKSFNRGEC
6.5 fold	M103205H795-MY270/M103202L889-SK1 (antibody, human IgG1, kappa) heavy: QVTLKESGPVLVKPTETLTLTCTVSGIDLSHDDISWVRQAPGKGLEWVGIISYAGSTYYASWAKGRLTISKDTSKNQVVLTMTNMDPVDTATYYCARGVPAYSHGGDLWGQGTLVTVSSASTKGPSVFPLAPSSKSTSGGTAALGCLVKDYFPEPVTVSWNSGALTSGVHTFPAVLQSSGLYSLSSVVTVPSSSLGTQTYICNVNHKPSNTKVDKKVEPKSCDKTHTCPPCPAPELLHGPSVFLFPPKPKDTLMISRTPEVTCVVVDVSDEDPEVKFNWYVDGVEVHNAKTKPREEQYNSTYRVVSVLTVLHQDWLNGKEYKCKVSNKALPKPIEKTISKAKGQPREPQVYTLPPSREEMTKNQVSLTCLVKGFYPSDIAVEWESNGQPENNYKTTPKVLDSDGSFFLYSKLTVDKSRWQQGNVFSCSVMHEALHNHYTQKSLSLSP light: DIVMTQSPATLSLSPGERATLSCTSSQSVYHANWLSWFQQKPGQPPKLLIYWASTLAYGVPSRFSGSGSGTDFTLTISSLQPEDAATYYCAGGYGGGRYAFGQGTKVEIKRTVAAPSVFIFPPSDEQLKSGTASVVCLLNNFYPREAKVQWKVDNALQSGNSQESVTEQDSKDSTYSLSSTLTLSKADYEKHKVYACEVTHQGLSSPVTKSFNRGEC
